Assay [1] addresses T1, human LAG3 chimera (extracellular domain of human LAG3 and trans-membrane/cytoplasmic domain of human CD300a) … (human, UniProt P18627 23-450; Q9UGN4 181-299, limits assumed).
T1 sequence (looked up): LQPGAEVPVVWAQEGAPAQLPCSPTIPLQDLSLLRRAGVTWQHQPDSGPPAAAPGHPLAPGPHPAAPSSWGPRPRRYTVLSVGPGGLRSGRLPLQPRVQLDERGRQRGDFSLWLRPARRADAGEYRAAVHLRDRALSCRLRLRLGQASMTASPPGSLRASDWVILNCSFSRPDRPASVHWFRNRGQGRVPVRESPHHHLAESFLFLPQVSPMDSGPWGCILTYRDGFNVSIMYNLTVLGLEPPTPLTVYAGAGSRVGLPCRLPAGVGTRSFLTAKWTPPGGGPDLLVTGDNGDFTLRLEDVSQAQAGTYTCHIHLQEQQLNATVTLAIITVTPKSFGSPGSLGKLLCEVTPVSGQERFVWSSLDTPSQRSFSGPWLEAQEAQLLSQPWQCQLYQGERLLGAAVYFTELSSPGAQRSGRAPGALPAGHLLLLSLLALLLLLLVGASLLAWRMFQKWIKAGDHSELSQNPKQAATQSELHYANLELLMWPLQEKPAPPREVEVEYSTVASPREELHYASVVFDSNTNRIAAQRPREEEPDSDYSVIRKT
Kind of assay: cell-based or functional assay.

The target of assay [2] is T2, human LAG3 expressed on HEK293 cells (human, UniProt P18627 23-525).
T2 construct: also called hLAG3; HEK293/hLAG3
T2 sequence: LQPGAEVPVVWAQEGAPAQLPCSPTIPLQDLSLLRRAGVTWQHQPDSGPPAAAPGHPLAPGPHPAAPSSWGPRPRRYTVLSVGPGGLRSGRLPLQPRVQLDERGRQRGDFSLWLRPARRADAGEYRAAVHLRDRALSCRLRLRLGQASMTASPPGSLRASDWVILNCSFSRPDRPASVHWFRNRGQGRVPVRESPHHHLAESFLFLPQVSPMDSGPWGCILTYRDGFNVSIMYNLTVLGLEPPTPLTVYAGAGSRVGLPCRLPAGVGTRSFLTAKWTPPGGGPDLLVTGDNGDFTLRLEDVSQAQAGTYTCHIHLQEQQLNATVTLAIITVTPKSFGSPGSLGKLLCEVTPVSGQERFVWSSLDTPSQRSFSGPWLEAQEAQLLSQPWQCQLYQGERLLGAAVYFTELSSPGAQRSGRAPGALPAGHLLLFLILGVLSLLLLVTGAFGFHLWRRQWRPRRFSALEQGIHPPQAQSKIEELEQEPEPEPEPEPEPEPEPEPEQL
Kind of assay: electrochemiluminescence cell binding, HEK293-hLAG3. As for the experimental part:
To investigate the ability of a panel of anti-LAG3 monoclonal antibodies to bind cell-surface expressed LAG3, an in vitro binding assay utilizing human and monkey LAG3 expressing cell lines in an electrochemiluminescence based detection platform [Meso Scale Diagnostics, Rockville, Md.—(MSD)] was developed.
Experiments were carried out according to following procedure. Cells from the three cell lines described above were rinsed once in 1×PBS buffer without Ca²⁺/Mg²⁺ followed by 10-minute incubation at 37° C. with Enzyme Free Cell Dissociation Solution. […] Approximately 10,000 cells per well in the cell-washing buffer were seeded into the 96-well carbon electrode plates (MULTI-ARRAY high bind plate, MSD) and incubated for 1 hour at 37° C. to allow the cells to adhere. Nonspecific binding sites were blocked by 2% BSA (w/v) in PBS for 1 hour at room temperature. […] The plates were then washed to remove the unbound antibodies using an AquaMax2000 plate washer (MDS Analytical Technologies). The plate-bound antibodies were detected with a SULFO-TAG™-conjugated anti-human IgG antibody (MSD) for 1 hour at room temperature. After washes, the plates were developed with the Read Buffer (MSD) according to manufacturer's recommended procedure and the luminescent signals were recorded with a SECTOR Imager 6000 (MSD) instrument. The direct binding signals (in relative light units—RLU) were analyzed as a function of the antibody concentration and the data were fitted with a sigmoidal (four-parameter logistic) dose-response model using Graph Pad Prism™ software. The potency of each antibody was determined by calculating EC₅₀.

Assay [3] has as its target T2, human LAG3 expressed on HEK293 cells. Kind of assay: cell adherence assay, blocks RAJI (human MHCII) cells on HEK293-hLAG3. How it is done: Cells were plated into sterile Nunclon™ Delta 96-Well MicroWell™ Black Optical Bottom Plates (Thermo Scientific). The wells from the perimeter of the plate were not included in the assay design to avoid edge effects.
On the day of treatment, all antibodies were serially (1:3) diluted in RPMI media (without FBS or supplements added). The 9-point dilution ranged between 45 pM to 300 nM, with the last dilution point containing no mAb. […] While the plated HEK293-LAG3 cells were incubating with the test or control antibodies, non-adherent B-cells (RAJI or A20) were labeled with Calcein AM using the following procedure. RAJI and A20 suspension cells were harvested and centrifuged at 1,200 rpm for 5 minutes. Cell pellets were resuspended in 1×PBS and counted. Cells were washed with RPMI, and resuspended in RPMI at a concentration of 10⁶ cells per 1 ml. Cells were labeled by adding 5 μL of Calcein AM per 1 ml of cell suspension and incubated for 30 min at 37° C., at 5% CO₂. […] Subsequently, 10 μL of BD Pharmingen Fc Block (0.5 mg/mL) was added per 1 ml of the Calcein AM labeled cells, which were incubated at RT for 10 minutes. The Calcein AM-stained, Fc-blocked RAJI or A20 cells were resuspended in RPMI to a final concentration of 3×10⁶ cells per 1 ml and subsequently used in the adherence assay.
The labeled suspension cells were incubated with the HEK293 monolayer for 1 hour at 37° C., at 5% CO₂.

B1: H4sH15479P (antibody, V domains shown)
VH: QVQLQQWGAGLLNPSETLSLTCAVYGGAFSDYYWNWIRQPPGKGLEWIGEINHRGSTNYNPSLKSRVTISVDTSKNQFSLRMSSVTAADAAVYYCARGEDYDIWNGYYQEKWGQGTLVTVSS
VL: EIVLTQSPATLSLSPGERATLSCRASQSISTYLAWYQQKPGQAPRLLIYDASKRATGIPARFSGSGSGTDFTLTISSLEPEDFVVYYCHQRSNWPLTFGGGTKVEIK
B1: in assay [1], the “EC50, AP1-Luc signaling, bispecific mode” value was determined as 0.0872 nM and the “EC50, AP1-Luc signaling, peptide mode” value worked out at 0.135 nM. For the same molecule, in assay [2], the EC50 (in general, the concentration giving half of the maximal effect) turned out to be 13.4 nM. Also, in assay [3], the 50% inhibitory concentration (IC50) (usually the concentration needed to halve the response being measured) was determined as 9.6 nM.

B2: H4H17826P2 (antibody, human IgG4, V domains shown)
VH: EVQLVESGGGLVQPGGSLRLSCAASGFTFSSYEMNWVRQAPGKGLEWVSYISSSGNTKDYAGSVKGRVTISRDNAKNLLYLQMNSLRAEDTAVYHCARDGGHYDILTGSMSYYYYALDVWGQGTTVTVSS
VL: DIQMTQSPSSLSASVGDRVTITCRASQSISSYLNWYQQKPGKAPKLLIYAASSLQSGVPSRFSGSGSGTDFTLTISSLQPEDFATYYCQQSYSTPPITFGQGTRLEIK
notes: H4H = human IgG4 Fc with S108P hinge mutation
Consider B2, for which, in assay [1], the “EC50, AP1-Luc signaling, bispecific mode” value is 266 nM and the “EC50, AP1-Luc signaling, peptide mode” value worked out at 8.83 nM. In assay [2], this molecule returned a concentration giving a half-maximal response (EC50) of 3.48 nM. This molecule also gave a half-maximal inhibitory concentration (IC50) in assay [3] of 27 nM.

B3: H4H17823P (antibody, human IgG4, V domains shown)
VH: EVQLLESGGGLVQPGGSLRLSCAASGFTFRSYAMSWVRQAPGKGLEWVSVISGGGGRTYYTDSVKGRFTISRDNSKSMLYLQMNSLRAEDTAIYYCAKERVTGIDHYYYGVDVWGQGTTVTVSS
VL: DIQMTQSPSSLSASVGDRVTITCRASQSISSYLNWYQQKPGKAPKLLIYATSSLQSGVPSRFSGSASGTDFTLAISSLQPEDFATYYCQQSYTTPLTFGGGTKVEIK
notes: as for B2
For the molecule B3, in assay [1], the “EC50, AP1-Luc signaling, bispecific mode” value is > 100 nM and the “EC50, AP1-Luc signaling, peptide mode” value was found to be 0.688 nM. This molecule returned a concentration for a half-maximal effect (EC50) in assay [2] of 1.5 nM. The same molecule had a concentration for half-maximal inhibition (IC50) in assay [3] of 8.6 nM.

B4: H4sH15462P (antibody, V domains shown)
VH: QVQLVQSGAEVKKPGASVKVSCKASGYTFTNYYIHWVRQAPGQGLDWMGIINPGGGNTNYAQKFLGRVTMTRDTSTTTVYMELSSLRSEDTAIYYCARENWNSYFDNWGQGTLVTVSS
VL: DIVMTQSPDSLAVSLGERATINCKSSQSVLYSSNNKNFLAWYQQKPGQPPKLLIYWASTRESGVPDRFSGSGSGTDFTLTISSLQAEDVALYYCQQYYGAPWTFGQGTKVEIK
notes: H4sH = human IgG4 Fc with 2 or more amino acid changes as disclosed in US20140243504
Take B4: in assay [1], the “EC50, AP1-Luc signaling, bispecific mode” value is 0.148 nM and the “EC50, AP1-Luc signaling, peptide mode” value turned out to be 0.486 nM. The molecule also gave an EC50 in assay [2] of 0.853 nM. This molecule also yielded a 50% inhibitory concentration (IC50) in assay [3] of 2.5 nM.

B5: H4H15462P (antibody, human IgG4, V domains shown)
VH: QVQLVQSGAEVKKPGASVKVSCKASGYTFTNYYIHWVRQAPGQGLDWMGIINPGGGNTNYAQKFLGRVTMTRDTSTTTVYMELSSLRSEDTAIYYCARENWNSYFDNWGQGTLVTVSS
VL: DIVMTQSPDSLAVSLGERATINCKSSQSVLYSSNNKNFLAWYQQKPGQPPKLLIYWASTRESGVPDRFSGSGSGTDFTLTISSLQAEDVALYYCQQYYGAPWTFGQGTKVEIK
notes: as for B2
Regarding B5, in assay [1], the “EC50, AP1-Luc signaling, bispecific mode” value was found to be 0.224 nM and the “EC50, AP1-Luc signaling, peptide mode” value amounted to 0.344 nM. Also, in assay [2], the concentration giving a half-maximal response (EC50) stood at 6.85 nM. This molecule also showed a concentration for half-maximal inhibition (IC50) in assay [3] of 3.2 nM.

B6: H4H17828P2 (antibody, human IgG4, V domains shown)
VH: EVQLVESGGGLVQPGGSLRLSCAASGFTFKTYAMSWVRQAPGRGLEWVSGISGSGSTSYYADSVKGRFTISRDNYKKTLSLQMNSLRAEDTAVYYCALDIMATVGGLFNNWGQGTLVTVSS
VL: not shown
notes: as for B2
Regarding B6, in assay [1], the “EC50, AP1-Luc signaling, bispecific mode” value is > 100 nM and the “EC50, AP1-Luc signaling, peptide mode” value turned out to be 4.91 nM. Besides, the half-maximal effective concentration (EC50) in assay [2] was found to be 1.2 nM. The half-inhibitory concentration (IC50) in assay [3] was determined as 11 nM.

The record behind these values is US20170101472A1 (Regeneron, published 2017).
